From the supplement of paper PMC12783771 come the findings set out here.

B1: library; numbered along this chain (parent)
chain: MNIQIGELAKRTACPVVTIRFYEQEGLLPPPGRSRGNFRLYGEEHVERLQFIRHCRSLDMPLSDVRTLLSYRKRPDQDCGEVNMLLDEHIRQVESRIGALLELKHHLVELREACSGARPAQSCGILQGLSDCVCDTRGTTAHPSD

The variants in data set [1] derive from B1. Nature of the data set: sfGFP reporter fluorescence (15 h) (µM FITC); higher = higher leak. The conditions noted are these: library round: Round 0; ligand: none. A digest of the protocol: (§1)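 PCR-made linear PbrR templates (Echo-normalized to 5 nM) were expressed in BL21 Star (DE3) extract (PANOx-SP) with pPbrR-sfGFP reporter plasmid and 30 μg/mL GamS. Reactions were 1 μL, Echo-assembled, with 1 µM lead chloride, 30 µM zinc acetate or no metal, incubated 15 hr at 30 °C. Endpoint sfGFP fluorescence (485/528 nm, Synergy Neo2) was converted to µM FITC via standard curves in 50 mM sodium borate pH 8.5. Up to three biological replicates.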

Data set [2] covers variants of B1. Nature of the data set: sfGFP reporter fluorescence (15 h) (µM FITC); higher = stronger transcriptional activation. The conditions noted are these: library round: Round 0. A digest of the protocol:
as §1

± gives the standard deviation of the averaged measurements.

With MNIQIGELAKRTACPVVTIRFYEQEGLLPPPGRSRGNFRLYGEEHVERLQFIRHCRSQDMPLSDVRTLLSYRKRPDQDCGEVNMLLDEHIRQVESRIGALLELKHHLVELREACSGARPAQSCGILQGLSDCVCDTRGTTAHPSD [L58Q], the sfGFP reporter fluorescence in data set [1] amounted to 0.0596 ± 0.0018; in data set [2] (ligand: 1 µM Pb), 0.05901 ± 0.00052; in data set [2] (ligand: 30 µM Zn), 0.0711 ± 0.0021.
On to MNIQIGELAKRTACPVVTIRFYEQEGLLPPPGRSRGNFRLYGEEHVERLQFIRHSRSLDMPLSDVRTLLSYRKRPDQDCGEVNMLLDEHIRQVESRIGALLELKHHLVELREACSGARPAQSCGILQGLSDCVCDTRGTTAHPSD [C55S], for which the sfGFP reporter fluorescence in data set [1] was found to be 0.06029 ± 0.00026; in data set [2] (ligand: 1 µM Pb) it was 0.066 ± 0.001; in data set [2] (ligand: 30 µM Zn) it was 0.203 ± 0.019.
For MNIQIGELAKRTACPVVTIRFYEQEGLLPPPGRSRGNFRLYGEEHVERLQFIRHCRSLDMPLSDVRTLLSYRKRPDQDCGEVNMLLDEHIRQVESRIGALLELKHHLVELREACSGARPAQSCGILQGLSDCVCETRGTTAHPSD [D135E], the sfGFP reporter fluorescence was 0.0579 ± 0.0021 in data set [1], 0.0724 ± 0.0029 in data set [2] (ligand: 1 µM Pb) and 0.648 ± 0.055 in data set [2] (ligand: 30 µM Zn).
The like results for MNIQIGELAKRTACPVVTIRFYEQEGLLPPPGRSRGNFRLYGEEHVERLQFIRHCRSLDMPLSDVRTLLSYRKRPDQDCGEVNMLLDEHIRQVESRIGALLELMHHLVELREACSGARPAQSCGILQGLSDCVCDTRGTTAHPSD [K104M] were, in that order, 0.059 ± 0.0088, 0.111 ± 0.035 and 1.13 ± 0.15.
With MNIQIGELAKRTACPVVTIRFYEQEGLLPPPGRSRGNFRLYGEEHVERLQFIRHCRSLDMPLSDVRTLLSYRKRPDQDCGEVNMLLDEHIRQVESRIGALLELKHHLVELREACSGARPAQSCGILQDLSDCVCDTRGTTAHPSD [G128D], the sfGFP reporter fluorescence came out at 0.0603 ± 0.0023 in data set [1], 0.0607 ± 0.00078 in data set [2] (ligand: 1 µM Pb) and 0.108 ± 0.0029 in data set [2] (ligand: 30 µM Zn).
As for MNIQIGELAKRTACPVVTIRFYEQEGLLPPPGRSRGNFRLYGEEHVERLQFIRHCRSLDMPLSDVRTLLSYRKRPDQDCGEVNMLLDEHIRQVESRIGALLELKHHLVELREACSGARPAQSCGILQGLSSCVCDTRGTTAHPSD [D131S], the figures for the sfGFP reporter fluorescence in data set [1], in data set [2] (ligand: 1 µM Pb) and in data set [2] (ligand: 30 µM Zn) were 0.0618 ± 0.0034, 0.1033 ± 0.00052 and 0.962 ± 0.087, respectively.
For the variant MNIQIGELAKRTACPVVTIRFYEQEGLLPPPGRSRGNFRLYGFEHVERLQFIRHCRSLDMPLSDVRTLLSYRKRPDQDCGEVNMLLDEHIRQVESRIGALLELKHHLVELREACSGARPAQSCGILQGLSDCVCDTRGTTAHPSD [E43F], the figures for the sfGFP reporter fluorescence in data set [1], in data set [2] (ligand: 1 µM Pb) and in data set [2] (ligand: 30 µM Zn) were 0.05846 ± 0.00026, 0.0828 ± 0.015 and 0.99 ± 0.18, respectively.
